Experimental findings from the Human Domainome abundance scans (Beltran et al. 2025) are described below.

± gives the uncertainty stated by the source.

First the molecules themselves.
B1: POU domain, class 4, transcription factor 2, residues 256 to 327; numbered along this chain, Q12837 (parent)
chain: RDLEAFAERFKQRRIKLGVTQADVGSALANLKIPGVGSLSQSTICRFESLTLSHNNMIALKPILQAWLEEAE

In this series the parent is B1. Nature of the series: abundance fitness (aPCA) (normalised: wild type 0, dead -1); higher = more abundant; growth selection in yeast, the domain comes from the species named. As to conditions: Homo sapiens.
For the variant RFLEAFAERFKQRRIKLGVTQADVGSALANLKIPGVGSLSQSTICRFESLTLSHNNMIALKPILQAWLEEAE [D2F], the abundance fitness was -0.376 ± 0.2. In the case of RDLEAFAERFKQRRIKLGVTQADVGSALANLKIEGVGSLSQSTICRFESLTLSHNNMIALKPILQAWLEEAE [P34E] it was -0.036 ± 0.075; in that of RDLEAFAERFKQRRIKLGVTRADVGSALANLKIPGVGSLSQSTICRFESLTLSHNNMIALKPILQAWLEEAE [Q21R], -0.111 ± 0.043.

As to RDLEAFAERFKQRRIKLGVTQADVGSALAHLKIPGVGSLSQSTICRFESLTLSHNNMIALKPILQAWLEEAE [N30H], the abundance fitness is -0.087 ± 0.13. In the case of RDLEAFAERFKQRRIKLGVTQADVGSALAALKIPGVGSLSQSTICRFESLTLSHNNMIALKPILQAWLEEAE [N30A] it was -0.116 ± 0.082; in that of RDLEAFAERFKQRRIKLGVTQADFGSALANLKIPGVGSLSQSTICRFESLTLSHNNMIALKPILQAWLEEAE [V24F], -0.642 ± 0.18; in that of RDLEAFAERFKQRRIKLGVTQADVGSALANLKIPLVGSLSQSTICRFESLTLSHNNMIALKPILQAWLEEAE [G35L], -0.329 ± 0.076. In the case of RDLEAFAERFKQRRIKLGVTQADVGSALANLKIPGVGSLSQSTICRFESLTLSHNNMIALKPILMAWLEEAE [Q65M] it was -0.235 ± 0.099. In the case of RDLEAFAERFKQFRIKLGVTQADVGSALANLKIPGVGSLSQSTICRFESLTLSHNNMIALKPILQAWLEEAE [R13F] it was -0.375 ± 0.13; in that of RDLEAFAERFKQRRIKLGVTQADVGSALANLKIPGVGSLSQSTIRRFESLTLSHNNMIALKPILQAWLEEAE [C45R], -0.008 ± 0.059; in that of RDLEAFAERFKQRRIKLGVTQADVGSALANLKIPGVGSLSQSTIFRFESLTLSHNNMIALKPILQAWLEEAE [C45F], -0.041 ± 0.19.

For RDLEAFAERFKQRRIKLGVTQADVGGALANLKIPGVGSLSQSTICRFESLTLSHNNMIALKPILQAWLEEAE [S26G], the abundance fitness was -0.164 ± 0.069.

Regarding RDLEAFAERFKQRRIKLGVTQADVGPALANLKIPGVGSLSQSTICRFESLTLSHNNMIALKPILQAWLEEAE [S26P], the abundance fitness is -0.694 ± 0.089. Take RDLEAFAERFKQRRIYLGVTQADVGSALANLKIPGVGSLSQSTICRFESLTLSHNNMIALKPILQAWLEEAE [K16Y]: the abundance fitness is -0.073 ± 0.23. In the case of RDLEAFAERFKQRRIHLGVTQADVGSALANLKIPGVGSLSQSTICRFESLTLSHNNMIALKPILQAWLEEAE [K16H], the abundance fitness came out at 0.028 ± 0.11.

On to RDLEAFAERFKQRRIKLGVTQADVGSALANLKIPGVGSLSQSTICRFESLTLSHNYMIALKPILQAWLEEAE [N56Y], for which the abundance fitness was -0.248 ± 0.45. With RDLEAFAERFKQRRIKLGVTQADVGSALNNLKIPGVGSLSQSTICRFESLTLSHNNMIALKPILQAWLEEAE [A29N] the figure was -0.116 ± 0.22. As to RDLEAFAERFKQRRIKYGVTQADVGSALANLKIPGVGSLSQSTICRFESLTLSHNNMIALKPILQAWLEEAE [L17Y], the abundance fitness was -0.778 ± 0.32. On to RDLEAFAERFKQRRIKPGVTQADVGSALANLKIPGVGSLSQSTICRFESLTLSHNNMIALKPILQAWLEEAE [L17P], for which the abundance fitness was -0.974 ± 0.17. In the case of RDLEAFAERFKQRRIKLGVTQADVGSALANLMIPGVGSLSQSTICRFESLTLSHNNMIALKPILQAWLEEAE [K32M] it was -0.215 ± 0.13.

Regarding RDLEAFAERFKQRRIKLGVTQADVGSALANLCIPGVGSLSQSTICRFESLTLSHNNMIALKPILQAWLEEAE [K32C], the abundance fitness is -0.192 ± 0.19.

Take RDLEAFAERFKQRRIKLGVTQADVGSALANLGIPGVGSLSQSTICRFESLTLSHNNMIALKPILQAWLEEAE [K32G]: the abundance fitness was -0.24 ± 0.077. Take RDLEAFAERFKQRREKLGVTQADVGSALANLKIPGVGSLSQSTICRFESLTLSHNNMIALKPILQAWLEEAE [I15E]: the abundance fitness was -0.226 ± 0.11.

Consider RDLEAFAERFKQRRIKLGVTQADVGSALANLKIPGVGSLSQSTICRFECLTLSHNNMIALKPILQAWLEEAE [S49C], for which the abundance fitness is -0.245 ± 0.14. With RDLEAFAERFKQRRIKLGVTQAHVGSALANLKIPGVGSLSQSTICRFESLTLSHNNMIALKPILQAWLEEAE [D23H] the figure was -0.127 ± 0.1; with RDLEAFAERFKQRRIKLGVTQAEVGSALANLKIPGVGSLSQSTICRFESLTLSHNNMIALKPILQAWLEEAE [D23E], -0.057 ± 0.16. In the case of RDLEAFAERFKQRRIKLGVTQALVGSALANLKIPGVGSLSQSTICRFESLTLSHNNMIALKPILQAWLEEAE [D23L] it was -0.252 ± 0.062; in that of RDLEAFAERFKQRRIKLGVTQADVTSALANLKIPGVGSLSQSTICRFESLTLSHNNMIALKPILQAWLEEAE [G25T], 0.117 ± 0.097; in that of RDLEAFAERFKQRRIKLGVTQADVGSALANLKIPGVGSLSQVTICRFESLTLSHNNMIALKPILQAWLEEAE [S42V], -0.113 ± 0.057. In the case of RDLEAFAERFKQRRIKLGVTQADVGSALANLKIPGVGSLSQSTICRFESLTLEHNNMIALKPILQAWLEEAE [S53E] it was -0.066 ± 0.12; in that of RDLEAFAERPKQRRIKLGVTQADVGSALANLKIPGVGSLSQSTICRFESLTLSHNNMIALKPILQAWLEEAE [F10P], -0.994 ± 0.12.

RDLEAFAERFKQRRIKLGVTQADVGSALANLKIPGVGSLSQSTICRFESLTLSHNNMIALKPILQAWLEEPE [A71P]: the abundance fitness was -0.671 ± 0.17. With RDTEAFAERFKQRRIKLGVTQADVGSALANLKIPGVGSLSQSTICRFESLTLSHNNMIALKPILQAWLEEAE [L3T] the figure was -0.327 ± 0.096. With RDLEAFAERFKQRRIKLGVTQHDVGSALANLKIPGVGSLSQSTICRFESLTLSHNNMIALKPILQAWLEEAE [A22H] the figure was -0.03 ± 0.15; with RDLEAFAERFKQRRIKLGVTQSDVGSALANLKIPGVGSLSQSTICRFESLTLSHNNMIALKPILQAWLEEAE [A22S], -0.082 ± 0.051; with RDLEAFAERFKQRRIKLGVTQADVGSALANLKIPGVGSLSQSTICRFESLTLSHNNMIAGKPILQAWLEEAE [L60G], -0.713 ± 0.13. Turning to RDLEAFAERFKQRRIKLGVTQADVGSALANLKIPGVGSLSQSTICRFESLTLSHNNMIASKPILQAWLEEAE [L60S], the abundance fitness was -0.77 ± 0.11.
